One block for each molecule: values may come before it.
B1: full-length human OGT (O-GlcNAc transferase), C-terminal His6 (enzyme, UniProt O15294 1-1046, looked up)
chain: MASSVGNVADSTEPTKRMLSFQGLAELAHREYQAGDFEAAERHCMQLWRQEPDNTGVLLLLSSIHFQCRRLDRSAHFSTLAIKQNPLLAEAYSNLGNVYKERGQLQEAIEHYRHALRLKPDFIDGYINLAAALVAAGDMEGAVQAYVSALQYNPDLYCVRSDLGNLLKALGRLEEAKACYLKAIETQPNFAVAWSNLGCVFNAQGEIWLAIHHFEKAVTLDPNFLDAYINLGNVLKEARIFDRAVAAYLRALSLSPNHAVVHGNLACVYYEQGLIDLAIDTYRRAIELQPHFPDAYCNLANALKEKGSVAEAEDCYNTALRLCPTHADSLNNLANIKREQGNIEEAVRLYRKALEVFPEFAAAHSNLASVLQQQGKLQEALMHYKEAIRISPTFADAYSNMGNTLKEMQDVQGALQCYTRAIQINPAFADAHSNLASIHKDSGNIPEAIASYRTALKLKPDFPDAYCNLAHCLQIVCDWTDYDERMKKLVSIVADQLEKNRLPSVHPHHSMLYPLSHGFRKAIAERHGNLCLDKINVLHKPPYEHPKDLKLSDGRLRVGYVSSDFGNHPTSHLMQSIPGMHNPDKFEVFCYALSPDDGTNFRVKVMAEANHFIDLSQIPCNGKAADRIHQDGIHILVNMNGYTKGARNELFALRPAPIQAMWLGYPGTSGALFMDYIITDQETSPAEVAEQYSEKLAYMPHTFFIGDHANMFPHLKKKAVIDFKSNGHIYDNRIVLNGIDLKAFLDSLPDVKIVKMKCPDGGDNADSSNTALNMPVIPMNTIAEAVIEMINRGQIQITINGFSISNGLATTQINNKAATGEEVPRTIIVTTRSQYGLPEDAIVYCNFNQLYKIDPSTLQMWANILKRVPNSVLWLLRFPAVGEPNIQQYAQNMGLPQNRIIFSPVAPKEEHVRRGQLADVCLDTPLCNGHTTGMDVLWAGTPMVTMPGETLASRVAASQLTCLGCLELIAKNRQEYEDIAVKLGTDLEYLKKVRGKVWKQRISSPLFNTKQYTMELERLYLQMWEHYAAGNKPDHMIKPVEVTESA
notes: human O-GlcNAc transferase (OGT), full length, UniProt O15294; Scissor-shaped homodimer by cryo-EM; also called OGT WT; His6-tagged OGT; source: E. coli BL21 (DE3), purified (Ni-NTA, Resource Q, Superose 6); for the OGT-OGA complex co-expressed with OGA in BL21 (DE3); not shown: His6, C-terminal, kept

Tests used:
[1] = O-GlcNAc at S405
[2] = target: the molecule itself; experiment: cryo-EM structure; single-particle cryo-EM of full-length human OGT alone, incubated with 1 mg/ml UDP-GlcNAc on ice; overall resolution 3.69 Å
[3] = target: B1; experiment: pull-down; GST pull-down: GST-OGA bait on Glutathione Sepharose 4B, His6-tagged OGT or mutants as prey; all proteins 1 mg/ml; 25 mM Tris pH 8.0, 150 mM NaCl, 2 mM DTT, 0.05% NP40; 2 h at 4 °C; SDS-PAGE with Coomassie staining; conditions: both partners purified

Molecule: OGA (O-GlcNAcase): OGT H508A mutant bound to OGA
enzymatic_activity [1]: no change

Molecule: B1
stoichiometry N [2]: 2

binding result [3]: binds
B2: GST-OGA (residues 371-440) (domain or fragment, human, UniProt O60502 371-440, looked up)
chain: DVLYSPQMALKLALTEWLQEFGVPHQYSSRQVAHSGAKASVVDGTPLVAAPSLNATTVVTTVYQEPIMSQ
notes: human OGA, residues 371-440, UniProt O60502, cloned into pGEX-6P-1; also called GST-OGA fragment; source: E. coli BL21 (DE3), purified (Glutathione Sepharose 4B, Resource Q, Superose 6)

From PMC10618255, “Cryo-EM structure of human O-GlcNAcylation enzyme pair OGT-OGA complex” (Nature Communications, 2023)
